Tests used:
Cas1 R123G = target: T1, Cas1 R123G (Escherichia coli, UniProt Q46896 1-305, R123G); experiment: EMSA; 5 mM EDTA; EMSA: 7 mM Tris-HCl pH 8.5, 9% glycerol, 50 mM NaCl, 100 ug/ml BSA, 5 mM EDTA, 10 min ambient temperature, 6 nM DNA, 5% acrylamide TBE gel at room temperature; details: protein: recombinant; tags: N-terminal His6; chain copies: 2; label: 5'-32P; fork; 25 nt leading arm duplex, 26 nt ssDNA flap
T1 sequence: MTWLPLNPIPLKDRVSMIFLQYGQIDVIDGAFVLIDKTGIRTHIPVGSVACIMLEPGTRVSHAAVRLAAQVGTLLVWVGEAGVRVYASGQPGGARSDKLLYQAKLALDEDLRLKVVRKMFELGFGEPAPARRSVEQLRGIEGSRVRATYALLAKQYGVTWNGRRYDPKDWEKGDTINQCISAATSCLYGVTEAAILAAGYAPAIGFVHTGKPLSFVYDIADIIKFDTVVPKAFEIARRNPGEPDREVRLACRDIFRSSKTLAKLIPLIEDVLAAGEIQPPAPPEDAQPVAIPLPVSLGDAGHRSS

Cas1 R84G = target: T2, Cas1 R84G (Escherichia coli, UniProt Q46896 1-305, R84G); experiment: as above; details: protein: recombinant; tags: N-terminal His6; chain copies: 2; label: 5'-32P; fork; 25 nt leading arm duplex, 26 nt ssDNA flap
T2 sequence: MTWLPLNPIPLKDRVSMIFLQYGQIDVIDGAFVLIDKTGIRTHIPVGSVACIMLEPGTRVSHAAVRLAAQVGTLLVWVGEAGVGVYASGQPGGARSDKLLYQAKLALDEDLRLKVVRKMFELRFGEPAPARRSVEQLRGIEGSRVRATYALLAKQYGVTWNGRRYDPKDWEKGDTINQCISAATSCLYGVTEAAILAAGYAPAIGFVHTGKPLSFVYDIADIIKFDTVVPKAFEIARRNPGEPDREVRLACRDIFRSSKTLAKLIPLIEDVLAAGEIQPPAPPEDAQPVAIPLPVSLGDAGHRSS

Cas1 R138G = target: T3, Cas1 R138G (Escherichia coli, UniProt Q46896 1-305, R138G); experiment: as above; details: protein: recombinant; tags: N-terminal His6; chain copies: 2; label: 5'-32P; fork; 25 nt leading arm duplex, 26 nt ssDNA flap
T3 sequence: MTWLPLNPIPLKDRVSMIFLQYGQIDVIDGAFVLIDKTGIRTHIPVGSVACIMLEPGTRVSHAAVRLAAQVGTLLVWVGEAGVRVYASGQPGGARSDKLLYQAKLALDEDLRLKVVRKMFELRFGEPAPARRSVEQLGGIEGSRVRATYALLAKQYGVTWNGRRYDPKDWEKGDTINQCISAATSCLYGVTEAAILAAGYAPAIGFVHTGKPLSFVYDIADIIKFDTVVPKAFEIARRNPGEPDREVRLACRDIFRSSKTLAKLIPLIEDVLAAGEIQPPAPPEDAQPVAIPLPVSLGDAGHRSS

Cas1;Cas2 = target: T4, Cas1;Cas2 (Escherichia coli;Escherichia coli, UniProt Q46896;P45956 1-305;1-94, |); experiment: EMSA; 5 mM EDTA; super-shifted complex Y; EMSA: 7 mM Tris-HCl pH 8.5, 9% glycerol, 50 mM NaCl, 100 ug/ml BSA, 5 mM EDTA, 10 min ambient temperature, 6 nM DNA, 5% acrylamide TBE gel at room temperature; details: protein: recombinant;recombinant; tags: N-terminal His6;N-terminal His6; chain copies: 4;2; label: 5'-32P; fork; 25 nt leading arm duplex, 26 nt ssDNA flap
T4 sequence 1: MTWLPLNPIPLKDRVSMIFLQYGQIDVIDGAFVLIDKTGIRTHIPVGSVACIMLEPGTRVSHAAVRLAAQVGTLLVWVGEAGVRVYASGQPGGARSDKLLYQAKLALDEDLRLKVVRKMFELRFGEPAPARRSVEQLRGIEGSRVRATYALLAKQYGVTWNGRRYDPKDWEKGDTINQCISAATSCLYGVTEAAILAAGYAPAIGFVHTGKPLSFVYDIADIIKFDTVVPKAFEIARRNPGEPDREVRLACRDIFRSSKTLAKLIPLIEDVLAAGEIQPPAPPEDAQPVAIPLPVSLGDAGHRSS
T4 sequence 2: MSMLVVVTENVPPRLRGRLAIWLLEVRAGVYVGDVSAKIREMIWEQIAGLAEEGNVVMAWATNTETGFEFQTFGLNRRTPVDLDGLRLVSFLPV

B1: fork-1 (mixed)
DNA 1: CAACGTCATAGACGATTACATTGCTACATGGAGCTGTCTAGAGGATCCGA
DNA 2: TCGGATCCTCTAGACAGCTCCATGATCACTGGCACTGGTAGAATTCGGC
DNA 3: GCCGAATTCTACCAGTGCCAGTGAT
B1: no binding (Cas1 R123G); no binding (Cas1 R84G); no binding (Cas1 R138G). B1: binds (Cas1;Cas2).

Reference: article PMC4678826, “Different genome stability proteins underpin primed and naïve adaptation in E. coli CRISPR-Cas immunity”
